The values that follow come from US20220177604A1 (ARGENX, published 2022).

Assay [1] addresses T1, human immunoglobulin E (hIgE) (human, UniProt P01854-1 1-428).
T1 construct: also called human IgE; Native IgE (Abcam)
As to the kind of experiment: SPR, Fab periplasmic extract, pH 7.4.

Assay [2] has as its target T2, recombinant Motavizumab human IgE (rMota-hIgE) (human, UniProt P01854 1-428).
T2 construct: also called Recombinant IgE (argenx)
Put plainly: SPR, Fab periplasmic extract, pH 7.4.

The target in assay [3] is T1, human immunoglobulin E (hIgE). Put plainly: SPR competition.
The target is the same in assay [4]. Put plainly: SPR competition. The source holds these as a separate data set.
Experimental: (§1) For this purpose, a competition approach was set-up. […] The assay was performed in HBS-EP pH7.4 or HBS-EP pH 5.5. Raw data were analyzed via BIA evaluation software with a blank subtraction (2-1). […] The IC50 values of each compound were calculated with a non-linear regression (log(agonist) vs. response Variable slope (four parameters)).
The target is the same in assay [5]. Put plainly: competition ELISA, biotin-hIgE to coated hFcεRIα, pH 6.
Experimental: (§2) The IC50 values of each compound were calculated with a non-linear regression (log(agonist) vs. response Variable slope (four parameters)).
For assay [6] the target is unchanged. As to the kind of experiment: SPR competition, hIgE over hFcεRIα chip, pH 7.4.
Experimental: (§3) The assay was performed in HBS-EP pH7.4 or HBS-EP pH 5.5. Raw data were analyzed via BIA evaluation software with a blank subtraction (2-1). […] The IC50 values of each compound were calculated with a non-linear regression (log(agonist) vs. response Variable slope (four parameters)).
(§4) Raw data were analyzed via BIA evaluation software with a blank subtraction (2-1). […] The IC50 values of each compound, calculated with a non-linear regression (log(agonist) vs. response Variable slope (four parameters)).
The target is the same in assay [7]. As to the kind of experiment: SPR competition, hIgE + mAb over hFcεRIα chip, pH 6 (text: pH 5.5).
Experimental: as §1
For assay [8] the target is unchanged. As to the kind of experiment: SPR competition, hIgE + mAb over hFcεRIα chip, pH 7.4.
Experimental: as §1
The target is the same in assay [9]. As to the kind of experiment: competition ELISA.
Experimental: as §2
The target is the same in assay [10]. Put plainly: competition ELISA, biotin-hIgE to coated hFcεRIα, pH 7.4.
Experimental: as §2
Assay [11] shares this target. Put plainly: SPR competition, hIgE over hFcεRIα chip, pH 5.5.
Experimental: as §3, §4
In assay [12] the target is T2, recombinant Motavizumab human IgE …. Put plainly: ELISA: rMota-hIgE captured on coated RSV-F, washes at pH 5.5, anti-human Fc-HRP; EC50 unit inferred, x axis in pM.
Experimental: (§5) Briefly a Maxisorp plate was coated with recombinant human respiratory syncytial virus protein F (RSV-F) (0.5 μg/mL), then blocked with PBS with 3% BSA and 0.05% Tween. […] After several washing steps at pH 7.4 or pH 5.5, detection of the bound mAbs was carried out with an anti-human Fc-HRP antibody.
Assay [13] has the same target. As to the kind of experiment: ELISA: rMota-hIgE captured on coated RSV-F, washes at pH 7.4, anti-human Fc-HRP; EC50 unit inferred, x axis in pM.
Experimental: as §5
Assay [14] deals with T1, human immunoglobulin E (hIgE). Put plainly: competition ELISA, hIgE to coated hFcεRIα, pH 6.
Experimental: (§6) The IC50 values of each antibody were calculated with a non-linear regression (log(agonist) vs. response Variable slope (four parameters)).
Assay [15] has the same target. As to the kind of experiment: competition ELISA, hIgE to coated hFcεRIα, pH 7.4.
Experimental: as §6
Assay [16] concerns the target T2, recombinant Motavizumab human IgE …. As to the kind of experiment: ELISA: rMota-hIgE captured on coated RSV-F, washes at pH 5.5, anti-human Fc-HRP; EC50 unit inferred, x axis in pM. The source holds these as a separate data set.
Experimental: as §5
Assay [17] shares this target. Put plainly: ELISA: rMota-hIgE captured on coated RSV-F, washes at pH 7.4, anti-human Fc-HRP; EC50 unit inferred, x axis in pM. This is another data set of the same source.
Experimental: as §5
Assay [18] shares this target. Described as above. The source holds these as a separate data set.
Experimental: as §5
Assay [19] has the same target. Put plainly: ELISA: rMota-hIgE captured on coated RSV-F, washes at pH 5.5, anti-human Fc-HRP; EC50 unit inferred, x axis in pM; curve reaches only OD450 about 0.85 at about 670 pM.
Experimental: as §5
Assay [20] shares this target. As to the kind of experiment: ELISA: rMota-hIgE captured on coated RSV-F, washes at pH 5.5, anti-human Fc-HRP; EC50 unit inferred, x axis in pM. This is another data set of the same source.
Experimental: as §5

T1 sequence (P01854 whole entry): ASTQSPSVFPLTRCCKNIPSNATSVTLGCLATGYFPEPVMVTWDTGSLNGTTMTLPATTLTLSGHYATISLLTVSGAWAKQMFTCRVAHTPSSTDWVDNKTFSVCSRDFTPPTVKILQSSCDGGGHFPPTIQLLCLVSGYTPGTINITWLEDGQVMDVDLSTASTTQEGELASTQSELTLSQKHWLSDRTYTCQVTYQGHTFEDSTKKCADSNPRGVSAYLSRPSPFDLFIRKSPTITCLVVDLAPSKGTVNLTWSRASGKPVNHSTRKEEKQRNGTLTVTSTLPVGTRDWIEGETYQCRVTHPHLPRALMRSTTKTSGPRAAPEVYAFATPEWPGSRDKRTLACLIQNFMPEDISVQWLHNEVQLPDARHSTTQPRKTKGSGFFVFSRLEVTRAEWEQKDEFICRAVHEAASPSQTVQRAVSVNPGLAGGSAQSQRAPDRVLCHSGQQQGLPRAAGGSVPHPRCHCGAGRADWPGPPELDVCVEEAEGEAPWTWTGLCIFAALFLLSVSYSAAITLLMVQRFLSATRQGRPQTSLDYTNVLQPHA
T2 sequence (P01854 other isoform, or with tags, fused parts or gaps limits assumed, form in doubt): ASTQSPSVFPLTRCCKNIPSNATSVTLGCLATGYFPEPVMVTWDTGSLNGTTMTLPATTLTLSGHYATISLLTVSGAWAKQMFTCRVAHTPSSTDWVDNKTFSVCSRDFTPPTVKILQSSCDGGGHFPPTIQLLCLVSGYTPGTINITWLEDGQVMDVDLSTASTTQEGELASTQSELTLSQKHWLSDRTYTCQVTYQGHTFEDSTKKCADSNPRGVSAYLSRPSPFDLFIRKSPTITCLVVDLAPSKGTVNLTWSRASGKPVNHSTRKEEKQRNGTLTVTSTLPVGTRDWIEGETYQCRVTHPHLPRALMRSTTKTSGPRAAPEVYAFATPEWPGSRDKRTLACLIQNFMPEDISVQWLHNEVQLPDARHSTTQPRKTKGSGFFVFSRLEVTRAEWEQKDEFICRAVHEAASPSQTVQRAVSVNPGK

B1: omalizumab variant Fab VH15 / VL3 (Fab, V domains shown)
VH: EVQLVESGGGLVQPGGSLRLSCAVSGYSITSGHRWEWIRQAPGKGLEWVASIHYDGSTNYNPSVKGRITISRDDSKNTFYLQMNSLRAEDTAVYYCARATHYFGHWHFAVWGQGTLVTVSS
VL: DIQLTQSPSSLSASVGDRVTITCRASQSVDYDGDSYMNWYQQKPGKAPKLLIEWGSYLRSGVPSRFSGSGSGTDFTLTISSLQPEDFATYYCQQNAEDPYTFGQGTKVEIK
Consider B1, for which, in assay [1], the “Off-rate improvement ratio (against VHWT VLWT)” value amounted to 14.8, the “R0 (RU)” value came to 235 RU and the koff was determined as 0.00035 s⁻¹. Moreover, in [2], the “Off-rate improvement ratio (against VHWT VLWT)” value is 18, the “R0 (RU)” value stood at 285 RU and the koff amounted to 0.000269 s⁻¹.

B2: 3D1 human IgG1 mAb (antibody, V domains shown)
VH: QLQVVESGGGLVQPGGSLRLSCAASGFTFSSYYMSWVRQAPGKGLEWVSSIYSDGRGSKTFYADSVKGRFTISRDNAKNTLYLQMNSLKSEDTAVYFCAKDLLVAARGSMDYWGQGTQVTVSS
VL: NFMLTQPSAVSVSLEQTARITCQGGTLGSYGAHWYQQKPGQAPVLLIYGDNSRPSGIPERFSGTRSGGTATLTISGAQAEDEADYYCQSFDYSGNAVFGGGTHLTVL
notes: human IgG1 and human light chain constant domains; also called clone 3D1; WT 3D1
Turning to B2, in assay [3], the “ratio between IC50 at pH5.5 and pH 7.4” value worked out at 8.6. The “Ratio pH 6/7.4 (IC50)” value in assay [4] was 0.8; in assay [9], 1.3. In addition, the concentration for half-maximal inhibition (IC50) stood at 118 nM in [5]; 1.36 µg/mL in assay [6]; 4.44 nM in assay [7]; 5.31 nM in assay [8]; 90.3 nM in assay [10]; 11.7 µg/mL in assay [11].

B3: 18B9His-hIgG1-WT (antibody, V domains shown)
VH: QVQLVESGGGLVQPGGSLRLSCAASGFTFSSYVMSWVRQAPGKGLEWVSSIYSDGSHTYYADSVKGRFTISRDNAKNTLYLQMNSLKSEDTAVYYCAKNLEHYSGSYYYTDPRYDYWGQGTQVTVSS
VL: SSALTQPSALSVTLGQTAKITCQGGSLGSSYVHWYQQKPGQAPVLVIHDGDSRPSGIPERFSGSSSGGTATLTISGAQAEDEDDYYCQSADSSGNAVFGGGTHLTVL
notes: also called VL18B9_Y49H; 18B9-His-WT
Regarding B3, the EC50 in assay [12] was 0.115 nM; in assay [13] it was 0.142 nM.

B4: 18B9His_MG (antibody, V domains shown)
VH: EVQLLESGGGLVQPGGSLRLSCAASGFTFSSYVMSWVRQAPGKGLEWVSSIYSDGSHTYYADSVKGRFTISRDNSKNTLYLQMNSLRAEDTAVYYCAKNLEHYSGSYYYTDPRYDYWGQGTLVTVSS
VL: SSELTQDPAVSVALGQTVRITCQGGSLGSSYVHWYQQKPGQAPVLVIYDGDSRPSGIPDRFSGSSSGNTASLTITGAQAEDEADYYCQSADSSGNAVFGGGTQLTVL
As to B4, the figures for the IC50 in assay [14] and in [15] were 1.74 µg/mL and 0.176 µg/mL, respectively.

B5: 18B9His-hIgG1-ABDEG (antibody, V domains shown)
VH: QVQLVESGGGLVQPGGSLRLSCAASGFTFSSYVMSWVRQAPGKGLEWVSSIYSDGSHTYYADSVKGRFTISRDNAKNTLYLQMNSLKSEDTAVYYCAKNLEHYSGSYYYTDPRYDYWGQGTQVTVSS
VL: SSALTQPSALSVTLGQTAKITCQGGSLGSSYVHWYQQKPGQAPVLVIHDGDSRPSGIPERFSGSSSGGTATLTISGAQAEDEDDYYCQSADSSGNAVFGGGTHLTVL
notes: also called 18B9His ABDEG; 18B9-hIgG1-ABDEG
For the molecule B5, the EC50 in [12] came out at 0.149 nM; in assay [13], 0.119 nM.

B6: 13E4-hIgG1-ABDEG (antibody, V domains shown)
VH: ELQLVESGGGLVQPGGSLRLSCAASGFTFSSYVMSWVRQAPGKGLEWVSSIYHDGSHTYYADFVKGRFTISRDNAKNTLYLQMNSLKSEDTAVYYCASGTSYSGSYYYTDPFFGSWGQGTQVTVSS
VL: HSAVTQPSALSVTLGQTAKITCQGGSLGSNYAYWYQQKPGQAPVLVIYDDDSRPSGIPERFSGSSSGGTATLTISGAQAEDEGDYYCQSADSNGNAVFGGGTHLTVL
notes: human IgG1 heavy chain with ABDEG mutations (pUPEX32a); also called 13E4-ABDEG
As to B6, the values for the EC50 in assay [16] and in assay [17] were 0.122 nM and 0.11 nM, respectively.

B7: 13E4-hIgG1-WT (antibody, V domains shown)
VH: ELQLVESGGGLVQPGGSLRLSCAASGFTFSSYVMSWVRQAPGKGLEWVSSIYHDGSHTYYADFVKGRFTISRDNAKNTLYLQMNSLKSEDTAVYYCASGTSYSGSYYYTDPFFGSWGQGTQVTVSS
VL: HSAVTQPSALSVTLGQTAKITCQGGSLGSNYAYWYQQKPGQAPVLVIYDDDSRPSGIPERFSGSSSGGTATLTISGAQAEDEGDYYCQSADSNGNAVFGGGTHLTVL
notes: also called clone 13E4
B7: the EC50 in assay [16] came to 0.0938 nM; in [17], 0.0913 nM.

B8: 18E2His2-hIgG1-WT (antibody, V domains shown)
VH: QLQLVESGGGLVQPGGSLRLSCAASGFTFSSYVMHWVRQAPGKGLEWVSSIYHDGSHTYYADFVKGRFTISRDNAKNTLYLQMNSLKSEDTAVYYCASGTSYSGSYYYTDPFFGSWGQGTQVTVSS
VL: NFMLTQPSALSVTLGQTARITCQGDRLGSRYIHWYQQKPPQAPVLVIHDDDRRPSGIPERFSGSSSGGTATLTISGAQAEDDGDYYCQSADSSGNPVFGGGTHLTVL
With B8, the figures for the EC50 in [18] and in assay [19] were 0.365 nM and approximately 4210 nM, respectively.

B9: 18E2His2-hIgG1-ABDEG (antibody, V domains shown)
VH: QLQLVESGGGLVQPGGSLRLSCAASGFTFSSYVMHWVRQAPGKGLEWVSSIYHDGSHTYYADFVKGRFTISRDNAKNTLYLQMNSLKSEDTAVYYCASGTSYSGSYYYTDPFFGSWGQGTQVTVSS
VL: NFMLTQPSALSVTLGQTARITCQGDRLGSRYIHWYQQKPPQAPVLVIHDDDRRPSGIPERFSGSSSGGTATLTISGAQAEDDGDYYCQSADSSGNPVFGGGTHLTVL
notes: human IgG1 heavy chain with ABDEG mutations (pUPEX32a); also called 18E2His2-ABDEG
For the molecule B9, the half-maximal effective concentration (EC50) in assay [18] came to 0.121 nM; in assay [20] it was 0.616 nM.

B10: 18E2_H S35H_MG (antibody, V domains shown)
VH: EVQLLESGGGLVQPGGSLRLSCAASGFTFSSYVMHWVRQAPGKGLEWVSSIYHDGSHTYYADFVKGRFTISRDNSKNTLYLQMNSLRAEDTAVYYCAKGTSYSGSYYYTDPFFGSWGQGTLVTVSS
VL: SSELTQDPAVSVALGQTVRITCQGDRLGSRYIYWYQQKPGQAPVLVIYDDDRRPSGIPDRFSGSSSGNTASLTITGAQAEDEADYYCQSADSSGNPVFGGGTQLTVL
notes: germlined clone
As for B10, the IC50 in assay [14] worked out at 0.671 µg/mL; in assay [15], 0.0657 µg/mL.
